Test results taken from patent publication US20060110774A1.

Biological target: rabbit anti-GRK polyclonal antibody
Experiment: competitive inhibition ELISA: pAb pre-incubated with pGRK, then added to immobilised rGRK

NSQSYYNGDPFITKDC [synthetic peptide pGRK (…) derived from human Granzyme K] was tested, and the concentration giving complete inhibition of antibody binding was 10 ng/µL.
